# IntAct's records for PubMed 22949673
# B1: 5-cytosine rRNA methyltransferase NSUN4 (Homo sapiens), Q96CB9-1 (parent)
# chain: MAALTLRGVRELLKRVDLATVPRRHRYKKKWAATEPKFPAVRLALQNFDMTYSVQFGDLWPSIRVSLLSEQKYGALVNNFAAWDHVSAKLEQLSAKDFVNEAISHWELQSEGGQSAAPSPASWACSPNLRCFTFDRGDISRFPPARPGSLGVMEYYLMDAASLLPVLALGLQPGDIVLDLCAAPGGKTLALLQTGCCRNLAANDLSPSRIARLQKILHSYVPEEIRDGNQVRVTSWDGRKWGELEGDTYDRVLVDVPCTTDRHSLHEEENNIFKRSRKKERQILPVLQVQLLAAGLLATKPGGHVVYSTCSLSHLQNEYVVQGAIELLANQYSIQVQVEDLTHFRRVFMDTFCFFSSCQVGELVIPNLMANFGPMYFCKMRRLT
# partner: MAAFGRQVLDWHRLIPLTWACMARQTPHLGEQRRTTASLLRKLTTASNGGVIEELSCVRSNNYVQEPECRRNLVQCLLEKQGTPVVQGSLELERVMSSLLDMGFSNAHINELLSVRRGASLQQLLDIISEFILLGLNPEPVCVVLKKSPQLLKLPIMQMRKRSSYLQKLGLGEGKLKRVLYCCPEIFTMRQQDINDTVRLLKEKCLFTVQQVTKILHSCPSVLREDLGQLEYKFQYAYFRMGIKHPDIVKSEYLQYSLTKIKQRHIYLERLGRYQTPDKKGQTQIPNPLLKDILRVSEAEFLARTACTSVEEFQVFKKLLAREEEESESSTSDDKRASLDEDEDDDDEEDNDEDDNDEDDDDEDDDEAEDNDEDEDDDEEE
# Variants of: B1
# Details: with mtef4_human MTERF4, Q7Z6M4
row,effect of a mutation on the interaction,Variant
1,disrupting interaction strength,V65R;R136A;I139R;R141A
